Patent publication US20160039936A1, “FIBROBLAST GROWTH FACTOR RECEPTOR INHIBITION FOR THE TREATMENT OF DISEASE” (UNIVERSITY OF MIAMI, priority 2011, published 2016)

Tests used:
FGFR4 = target: T1, FGFR4 (Rattus norvegicus, UniProt Q498D6); experiment: Binding of PLCγ to FGFR4 in NRVM (immunoprecipitation); assay type: cell-based; conditions: 30 minutes, vs PBS or FGF2
T1 construct: endogenous in cells; host or cells: isolated neonatal rat ventricular myocytes (NRVM)
Experimental: HEK293 cells in 10 cm-dishes were treated with growth factors for 30 minutes, cells were scraped using 1 ml IP buffer (50 mM Tris-HCl pH7.5, 150 mM NaCl, 5 mM MgCl2, 2 mM EGTA, 1% Triton X-100, 5% Glycerol, protease and phosphatase inhibitors), and protein lysates were prepared as described above. V5-tagged proteins were immunoprecipitated using 25 μl of anti-V5 agarose beads (Sigma-Aldrich). After 5 washes in IP buffer, proteins were eluted in 100 μl of sample buffer and analyzed by SDS-PAGE and immunoblotting. For endogenous immunoprecipitation studies from NRVM, cells in 10cm-dishes were treated with growth factors for 30 minutes. Some cells were pre-treated with FGFR4 blocking antibody at 10 μg/ml for 1 hour (human monoclonal, U3-11; U3Pharma). […] We added 50 μl of a 1:1 mix of Protein A on sepharose beads and Protein G on agarose beads that were previously equilibrated in RIPA buffer, followed by incubation at 4° C. under rotation for 2 hours, protein elution in sample buffer, and SDS-PAGE and Western blot analyses.

C57BL/6 mice = experiment: Intra-myocardial injection of FGF23 in mice; assay type: in vivo, mouse; conditions: 7.5 ng FGF23 intra-myocardial
Experimental: Twelve-week old adult C57BL/6 mice (Jackson Laboratories) underwent cardiac surgery using a standard operative procedure that has been described previously for intra-myocardial implantation of stem cells (Amado et al., Proc. Natl. Acad. Sci. U.S.A., 102(32):11474-11479, 2005). All procedures were performed by a single investigator who was blinded to the specific treatment group. All protocols and experimental procedures were approved by the Institutional Animal Care and Use Committee at the University of Miami Miller School of Medicine. Briefly, mice were anesthetized with isoflurane and an incision was made between the 3rd and 4th rib to reveal a cardiac window. Three injections of purified recombinant murine FGF23 in PBS or PBS alone were delivered into the free wall of the left ventricle via a 30-gauge needle attached to a standing Hamilton syringe. At each of the three sites, 10 μl were injected for a total of 30 μl containing a total of 7.5 ng FGF23. Cardiac function was evaluated by Vevo 770 imaging system (Visual Sonics, Toronto, Canada) at baseline and 2 weeks after surgery. Long and short axis 2D parasternal views and short axis M mode views were recorded under general anesthesia with isoflurane inhalation delivered through a nose mask. The heart rate was maintained above 400 bpm with controlled body temperature set to 37° C. At 7- and 14-days post-injection, animals were sacrificed, hearts were isolated, perfused ex-vivo (6 ml of 10% Formalin with 4 ml of 20 mM KCl), stored overnight in 10% formalin for fixation, and then serially sectioned (7 μm slices) and stained with hematoxylin and eosin. Age-matched untreated animals were sacrificed at 14 weeks of life. […]
Short-axis cardiac sections were used to quantify myocardial thickness by measuring the distance from the inner to the outer myocardial zone at the mid-chamber zone. […] Since klothro-ablated kl/kl mice display severe growth retardation with small hearts (Kuro-o et al., Nature, 390(6655):45-51, 1997), we also measured relative wall thickness calculated as two times the anterior wall thickness divided by left ventricular internal diameter. Total RNA was isolated from flash frozen hearts using TRIzol (Invitrogen) and RT-PCR analyses were performed as described above.
We measured cross-sectional surface area of cardiac myocytes in paraffin-embedded short-axis sections of the heart. Briefly, 7 μm thick sections were deparaffinized according to our established protocols. To specifically label cardiac myocytes, we used mouse monoclonal MF20 antibody against sarcomeric myosin at 1:200 and Cy5-conjugated donkey-anti mouse (Invitrogen) as secondary antibody at 1:400. To visualize nuclei, fixed tissue was incubated with 4′,6-diamidino-2-phenylindole (DAPI; 400 ng/ml in PBS) for 5 minutes. To visualize cellular borders, fixed tissue was incubated with wheat germ agglutinin (WGA) conjugated to Alexa Fluor 555 (Invitrogen) at 1 mg/ml in PBS containing 10 mM sodium azide. Immunofluorescence images were taken on a Leica TCS-SP5 confocal microscope with a 63× oil objective. Leica AF6000 fluorescence software was used to quantify cross-sectional cell surface area of 25 cells per field at four fields along the mid-chamber free wall based on WGA-positive staining.
Blood was collected at sacrifice via cardiac puncture and was centrifuged at 4° C. and 14,000 rpm for 15 minutes. Plasma supernatants were collected, stored at −80° C., and subsequently analyzed in batches for FGF23 (C-terminal mouse assay, Immutopics), PTH (1-84 assay, Alpco Immunoassays), and phosphate, calcium, BUN and creatinine (Ortho Vitros 250 Chemistry Analyzer).

[1] = Pharmacokinetic study of FGF23 in rats; assay type: in vivo, rat
Experimental: High systemic levels of FGF23 results in left ventricular hypertrophy in mice. […] Therefore, we administered FGF23 intravenously to determine if systemically elevated FGF23 levels could also induce LVH. We injected 40 μg/kg of recombinant FGF23 dissolved in 200 μl of PBS into the tail vein of adult wild type mice twice daily for 5 days with eight hours between daily doses. The dose of FGF23 was chosen based on published reports in which a similar dose stimulated ERK phosphorylation and increased Egr-1 expression (Urakawa et al., Nature, 444(7120):770-774, […]). The frequency of injections was chosen based on a pharmacokinetic study of adult wild type rats in which we injected a single dose of 40 μg/kg of FGF23. […] Thus, we estimated that two daily injections of 40 μg/kg would provide elevated FGF23 levels for at least 8 hours per day in mice. Control animals underwent the same injection schedule using 200 μl of PBS alone. On the morning of day 6, blood was collected for assay of FGF23, mice were sacrificed and the hearts examined.

[2] = In vivo biological activity of FGF23 (serum phosphate); design: species or system rat; conditions: Sprague-Dawley rats, single i.v. 40 μg/kg, over 4 hours
Description: We used recombinant mouse FGF23 (6His-tagged Tyr25-Val251 (Arg179Gln)), FGF2 (Ala11-Ser154), and FGF4 (Ala30-Leu202) proteins (R&D Systems). We chose the mutant form of FGF23 because it is resistant to furin protease-mediated degradation, which prolongs the protein's half-life.
We used recombinant mouse FGF23 (6His-tagged Tyr25-Val251 [Arg179Gln]; 26.1 kDa), and FGF2 (Ala11-Ser154; 16.2 kDa) (R&D Systems) as before (Faul et al., 2011).

T1 sequence (Q498D6 17-800): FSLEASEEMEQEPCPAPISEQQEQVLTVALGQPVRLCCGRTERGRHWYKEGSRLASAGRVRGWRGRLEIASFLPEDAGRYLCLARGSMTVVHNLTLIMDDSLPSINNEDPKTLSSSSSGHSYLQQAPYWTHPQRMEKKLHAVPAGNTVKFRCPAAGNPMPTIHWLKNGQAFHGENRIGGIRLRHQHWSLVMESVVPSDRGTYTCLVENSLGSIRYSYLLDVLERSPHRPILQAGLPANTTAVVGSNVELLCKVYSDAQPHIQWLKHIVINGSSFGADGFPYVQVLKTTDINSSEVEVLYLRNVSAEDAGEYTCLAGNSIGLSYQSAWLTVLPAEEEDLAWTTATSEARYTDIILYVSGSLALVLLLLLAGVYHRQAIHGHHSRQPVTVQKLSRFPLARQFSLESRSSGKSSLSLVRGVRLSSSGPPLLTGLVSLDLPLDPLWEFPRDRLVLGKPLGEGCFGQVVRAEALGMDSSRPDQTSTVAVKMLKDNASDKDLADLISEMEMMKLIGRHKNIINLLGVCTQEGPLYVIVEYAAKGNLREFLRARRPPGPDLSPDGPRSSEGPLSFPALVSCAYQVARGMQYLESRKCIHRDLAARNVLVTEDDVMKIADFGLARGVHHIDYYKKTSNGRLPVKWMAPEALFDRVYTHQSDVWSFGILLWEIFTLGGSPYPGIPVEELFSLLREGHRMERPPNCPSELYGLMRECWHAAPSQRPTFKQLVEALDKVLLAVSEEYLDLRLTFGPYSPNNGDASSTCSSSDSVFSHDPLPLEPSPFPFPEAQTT

B1: FGF23: recombinant mouse FGF23, 6His-tagged Tyr25-Val251 (Arg179Gln) (R&D Systems) (protein)
chain: YPDTSPLLGSNWGSLTHLYTATARTSYHLQIHRDGHVDGTPHQTIYSALMITSEDAGSVVITGAMTRRFLCMDLHGNIFGSLHFSPENCKFRQWTLENGYDVYLSQKHHYLVSLGRAKRIFQPGTNPPPFSQFLARRNEVPLLHFYTVRPRRHTQSAEDPPERDPLNVLKPRPRATPVPVSCSRELPSAEEGGPAASDPLGVLRRGRGDARGGAGGADRCRPFPRFV
modifications: left off: small tags and cut ends
FGFR4
  levels of co-purified FGFR4 in anti-PLCγ eluates: elevated
C57BL/6 mice
  cross-sectional surface area of cardiac myocytes (WGA): significant increase
  expression of β-MHC, ANP and BNP: increase
  α-MHC and MCAD mRNA levels: decrease
C57BL/6 mice; day 7, vs vehicle
  thickness of the left ventricular free wall: significant increase
C57BL/6 mice; day 14
  left ventricular internal diameter in diastole: significantly decreased
  relative wall thickness: increased
  thickness of the left ventricular free wall: increased further
C57BL/6 mice; day 14, vs vehicle
  ratio of heart weight to tibial length: significantly increased
  thickness of the interventricular septum: increased significantly
C57BL/6 mice; days 7 and 14
  levels of FGF23, phosphate, calcium, PTH, BUN, or creatinine vs vehicle: no significant differences
C57BL/6 mice; echocardiography over time
  ejection fraction: no change
[1]; adult wild type rats, single dose of 40 μg/kg
  half-life of circulating FGF23: 30 min
[1]; rats, single dose 40 μg/kg, four hours post injection
  plasma levels: remained elevated above baseline
[2]
  serum phosphate levels: significantly decreased
